Measured values as given in the nanobody polyreactivity screen of Harvey et al. (2022).

Assay: yeast display, Sf9 membrane polyspecificity reagent, FACS + sequencing; frameworks hold sequencing errors
How it was run: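 In a synthetic yeast display library (Saccharomyces cerevisiae BJ5465), nanobody expression was induced with galactose for 36–48 hours. FACS gates were set low and high (top ~1%) using anti-HA fluorescence for expression and streptavidin fluorescence for binding of the Sf9 membrane reagent. Each polyreactivity label is drawn from the gate of origin.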

Sequence: QVQLVESGGGLVQAGGSLRLSCDASGNTYLNALGWYRQAPGKERELVAAISKGGADTYYADSVKGRFTISRDNAKNTVYLQMNSLKPEDTAVYYCAADGYADGWWVEYPWTYDYWGQGTQVTVSS
- polyreactivity (PSR sort gate): low polyreactivity

Sequence: QVQLVETGGGLFQAGGSLRLSCAASGFSFGRYAMGWYRQAPGKERELVAAISRGGSSTYYADSVKGRFTISRDTAKNTVYLQMNSLKPEDTAVYYCNKVIIWARFDYWGQGTQVTVSS
- polyreactivity (PSR sort gate): high polyreactivity

Sequence: QVQLVESGGGLVQAGGSLRLSCAASGRIFRWYALGWYRQAPGKERELVAAISSRGGSTYYADSVKGRFTISRDNAKNTVYLQLNSLKPEDTAVYYCAADTSGWQPRYDYWGQGTQVTVSS
- polyreactivity (PSR sort gate): high polyreactivity

Sequence: QVQLVESGGGLVQAVGSLRLSCAASGLTFYSNAMGWYRQAPGKERELVATISQDGGRTYYADSVKGRFTISRDNAKNTVYLQMNSLKPEDTAVYYCAKDLYHTVGRYDYWGQGTQVTVSS
- polyreactivity (PSR sort gate): low polyreactivity

Sequence: QVQLVESGGGLVQAGGSLRLSCAASGRTIQWYAMGWYRQAPGKERELVAGISFSGGSTYYADSVKGRFTISRDNAKNTVYLQMNSLKPEDTAVYYCNAQGYTTYRGDYWGQGTQVTVSS
- polyreactivity (PSR sort gate): high polyreactivity

Sequence: QVQLGESVGGLVQAGGSLRLSCAASGRIFEPYAMGWYRQAPGKESELVAAINSGGSTNYADSVKGRFTISRDNAKNTVYLQMNSLKPEDTAVYYCNKGQNIRQSPGDYWGLGTQVTVSS
- polyreactivity (PSR sort gate): low polyreactivity

Sequence: QVQLVESGGGLVQAGGSLRLSCAASGSTFTLYARGWYRQAPGKERELVATITGSGGSTNYADSVKGRFTISRDNAKNTVYLQMNSLKPEDTAVYYCAADYAVYSFTEFNYWGQGTQVTVSS
- polyreactivity (PSR sort gate): high polyreactivity

Sequence: QVQLVESGGGLVQAGGSLRFSCAASGGTFGYNAMGWYRQAPGKDRELVARISWRGASTYYADSVKGRFTLSRDNAKNTVYLQMNSLKPEDTAVYYCAAYSFNYQPAYAYRGEDYWGQGTQVTVSS
- polyreactivity (PSR sort gate): low polyreactivity

Sequence: QVQLVESGGGLVQAGGSLRLSCAASGRTFREYAMGWYRHAPGKEREFVAAISESVGSTYYADSVKGRFTISRDNAKNTVYLQMNSLKPEDTAVYYCAKQSRYPSLDADYDYWGQGTQVTVSS
- polyreactivity (PSR sort gate): low polyreactivity

Sequence: QVQHVESGGGLVQAGGSLRVSCAASGFIFSAYAMGRYRKATGKERELVAAISSGGSTYYADSVKGRFTISRDNAKNTVYLQMNSLKPEDTEVYYCAAVYTGRYRYDYWGQGTHVTVSS
- polyreactivity (PSR sort gate): low polyreactivity

Sequence: QVQLVESGGGLVQAGGSLRLSCAASGFTFKGYAMGWYRQAPGKERELVAAITRGGSTYYADSVKGRFTISRDNAKNTVYLLMNSLKPEDTAVYYCAARGRGHGTTPNDYWGQGTQVTVSS
- polyreactivity (PSR sort gate): high polyreactivity

Sequence: QVQLQESGGGLVQAGGSLRLSCAASGYISQSSVMGWYRQAPGKERDFVASISYGATTYYADSVKGRFTISRDNAKNTVYLQTNSPKPEDTAVYYCAVGVKRGFSHRYWGQGTQVTVSS
- polyreactivity (PSR sort gate): high polyreactivity

Sequence: QVQLVESGGGLVQAGGSLRLSCAASGSIFGGYGMGWYRQAPGTERELVAAITSGSSTYYADSVKGRFTISRDNAKNTVYLQMNSLKPEDTAVYYCAARPYPHSAYEGDYWGRGTQVTVSS
- polyreactivity (PSR sort gate): low polyreactivity

Sequence: QVQLVESGGCLVQAGGSLRLSCAASGRTFGFYAMGWYRQAPGKERELVAGITQSGGSTYYADSVKGRFTISRDNAKNTVYLQMNSLKTEDTAVYYCATDYQQLDDYWGQGTQVTVSS
- polyreactivity (PSR sort gate): low polyreactivity

Sequence: QVQLVESGGGLVQAGGSLRLSCAASGITFYLYVMGWYRQAPGKERELVAAISSGGSTYYADSVKGRFTISRDNAKNTVYLQMNSLKPEDTAVYYCAADVARYLHYSYHEDYYWGQGTQVTVSS
- polyreactivity (PSR sort gate): low polyreactivity

Sequence: QVQLVESGGGLVQAGGSLRLSCAASGSTFRLYPMGWYRQAPGKERELVAAISRSGGSTYYADSVKGRFTISRDNAKNTVYLQMNRLKPEDTAVYYCAKRRPLYAHPDDYWGQGTQVTVSS
- polyreactivity (PSR sort gate): low polyreactivity

Sequence: QVQLVESGGGLVQAGGSLRLSCAASGIIFSWYDMGWYRQAPGKERELVAAISYRGSTNYADSVKGRFTISLDNAKNTVYLQMNSLKPEDTAVYYCNGPRRQYEYDYWGQGTQVTVSS
- polyreactivity (PSR sort gate): high polyreactivity

Sequence: QVQLVESAGGLVQAGGSLRLSCAASGSIFRAYSMGWYRQAPGKERELVAAISWGGGSTSYADSVKGRFTISRDNAKNTVYLQMNSLQPEDTAVYYCNKVSFSKRRDYYWGQGTQVTVSS
- polyreactivity (PSR sort gate): high polyreactivity

Sequence: QVQLVESGGGLVQAGGSLRLSCAASGYTFKTNDMGWYRPAPGKEREFVAAISAIGGSTYYADSVKGRFTISRDNAKNTVYLQMNSLKPEDTAVYYCAKDKSPYGYATNQYRKYYYWGQGTQVTVSS
- polyreactivity (PSR sort gate): low polyreactivity

Sequence: QVQLQESGGGLVQADGSLRLSCAASGSIFGYYYMGWYRQAPGKDRELVATINICGITNYADSVKGRFTISRDNAKNTVYLQMNSLKPDDNAVYYCAADEYAQRDLGYWGQGTQVTVSS
- polyreactivity (PSR sort gate): low polyreactivity

Sequence: QVQLVESGGGLVQAGGSLRLSCAASGYTFVVYAMGWYRQAPGKERELVAGITRGSSTYYADSVKGRFTISRDNAKNTVYLQMNSLKPEDTAVYYCARGYTWFYAVWPEYDYWGQGTQVTVSS
- polyreactivity (PSR sort gate): high polyreactivity

Sequence: QVQLGESRGGIVQAGGSLRLSCAASGSTFSYYAMGWYRQAPGKARELVAAISNRGGSTYYADSVKGRFTISRDNAKNTVYLQMNSLKPEDTAVYYCAAYYVFGYSTSGDYWGQGTQVTVSS
- polyreactivity (PSR sort gate): high polyreactivity

Sequence: QVQLVESGGGLVQAGCSLRLSCAASGSTFYYNAMGWYRQAPGKERELVAAITFTGGSTYADSVKGRFTISRDNAKNTVYLQLNSLKPEDTAVYYCAATIEGHDYLGTGYDYWGHGTQVTVSS
- polyreactivity (PSR sort gate): low polyreactivity

Sequence: QVQLVESGGGLVQAGGSLRLSCAASGFTFERNTMGWYRQAPGKERELVSTITRRGTSTYYADSVKGRFTISRDNAKNTVYLQMNSLKPEDTAVYYCAVYGYRTKYGYWGQGTQVTVSS
- polyreactivity (PSR sort gate): high polyreactivity

Sequence: QVQLVESGGGLVQAGGSLRLSCAASGSTFGWYAMGWYRQAPGKERELVASITSGGRTNYADSVKGRFTISRDNAKNTVYLQMNSLKTEDTAVYYCAKRVYGSNSLYDYWGQGTQVTVSS
- polyreactivity (PSR sort gate): low polyreactivity

Sequence: QVQLVESGGGLVQAGGSLRLSCAASGFTFFGDYAMGWYRQAPGKERELVAAIDWSGGTTYYADSVKGRFTISRDNAKNTVYLQMNSLKPEDTAVYYCAKDYYSDGIYYEYWGQGTQVTVSS
- polyreactivity (PSR sort gate): high polyreactivity

Sequence: QVQLVESSGGLVQAGGSLRLSCAASGSIFLYNAMGWYRKAPGTEREMVAAISKSGGSTYYADSVKGRFTISRDNAKYTVYLQMNSLKPEDTAVYYCAAGYGRRIRYGCEYDYWGQGTQVTVSS
- polyreactivity (PSR sort gate): low polyreactivity

Sequence: QVQLVESGGGLVQAGGSLRLSCAASGRIFGGYTMGWYRQAPGKERELVAAIRWSGGRTYYADSVKGRFTISRDNAKNTVYLQMNSLKPEDTAVYYCNRTPRYTIRYGYWGQGTQVTVSS
- polyreactivity (PSR sort gate): high polyreactivity

Sequence: QGQLVESGGGLVQAGGSLRLSCAASGFTFRGYAMGWYRQAPGKERELVATITSGGDTNDADSVKGRFTISRDNAKKTVYLQMNSLKPEDTAVYYCAAHDWEFVEEAGPVPWTPYDYWGQGTQVTVSS
- polyreactivity (PSR sort gate): low polyreactivity

Sequence: QVQLVESGGGLVQAGGSLRISCAASGYTFPFYTMGWYRQAPGKERELVAAINSGGSTYYADSVKGRFTISRDNAKNTVYLQMNRLKPEDTAVYYCAVEGGFRVRYQAQYRFYYWGQGTEVTVSS
- polyreactivity (PSR sort gate): high polyreactivity

Sequence: QVQLVESGGGLVQAGGSLCLSCAASGFIFEFYTMGWYRQAPGKERELVAAITNGDSTNYADSVKGRFTISRDNAKNTVYLQMNSLKPEDTAVYYCAADGKGETEYSSHPGWAFDYWGQGTQVTVSS
- polyreactivity (PSR sort gate): low polyreactivity

Sequence: QVQLVESGGGLVQAGGSLRLSCAASGRNSLYYTMGWYRQAPGKEREFVAAISSTGGSTYYADSVKGRFTISRDNAKNTVYLLMNSLKPVDTAVYYCNKVYGGGTYDYWGQGTQVTVSS
- polyreactivity (PSR sort gate): low polyreactivity
